Assay results: US20260078171A1 (INVIVYD, published 2026)
Positions count from the first letter of the chain named.

Key:
[1] = target: T1, WT SARS-CoV-2 spike S1 subunit (SARS-CoV-2, UniProt P0DTC2 16-685); assay: bio-layer interferometry (BLI, Octet), monovalent Fab affinity
[2] = target: SARS-CoV spike S1 subunit (SARS-CoV, UniProt P59594 14-667); assay: BLI (Octet), Fab, monovalent
[3] = target: T1, WT SARS-CoV-2 spike S1 subunit; assay: BLI (Octet), Fab, monovalent

B1: ADI-58125 (Fab, V domains shown)
VH: EVQLVESGGGLVKPGGSLRLSCAASGFTFSSYYMNWVRQAPGKGLEWVSSISEDGYSTYYPDSLKGRFTISRDSAKNSLYLQMNSLRADDTAVYYCARDFSGHTAWAGTGFEYWGQGTLVTVSS
VL: QSVLTQPPSVSGAPGQRITISCTGSSSNIGAGYDVHWYQQLPGTAPKLLIYGSSSRNSGVPDRFSGSKSGTSASLAITGLQAEDEADYYCQSYDSSLSVLYTFGTGTKVTVLG
- Kd [1]: 600 pM

B2: VYD222 Fab (Fab, V domains shown)
VH: B1 VH with S30G, Y33E, S101G, H103D, E112T
VL: QSVLTQPPSVSGAPGQRITISCTGSSSNIGAGYDVHWYQQLPGTAPKLLIYGSSSRNYGVPDRFSGSKSGTSASLAITGLQAEDEADYYCQSYDSDLGVLYTFGTGTKVTVL
- Kd [2]: 478 pM
- Kd [3]: 2140 pM
